Assay: soluble on expression in E. coli; label from the status in PepcDB or PDB records

Sequence	soluble on expression in E. coli
MAHHHHHHMENHKDDAVLLKHGWCEMLKGGVIMDVKSVEQAKIAEEAGAIGVMVLENIPSELRNKEGVARSVDPSKVEEIKKCVSINVLAKVRIGHFVEAQILEELKIDMIDESEVLTIADEMHHIDKHKFKTPFVCGCTNLGEALRRISEGASMIRTKGEAGTGNIIEAIKHIRTVNNEIKYLCSLSDSEVYHFAKKINAPIDLVLLTKKLKRLPVVNFAAGGVATPADAAMCMQLGMDGVFVGSGIFESENPRKMAASIVSAVSNFNNPKILLDVSMNLGKAMCGSTRVSDKWKNKNEEHTKFLTPQ	not soluble
MAHHHHHHMEREKHENMLMAIARDFNSVDDLIETFLTFLENKTDYFHVMLNDKDVETLSEKYDGAILKNLLNNNNCGFKAHSREQLLIKSFRKHQINYIMRKQPYIIENEEIKNKYLTSCDELKKIKYMPTTKDMNKEKQENSTKVNSDVHSLNVTQENHISIWNGGKTDKYYWNQALKEINLEMPFNEEIKPNDVNVQITNTNIKIYHCGVLKLEGMFYEEVDKQECVWSIEDKKNIIIYLEKKRENWWPCVIKGDTEIDTKNIESKKNLTDFDEKTQGQIRKFLLEQRMKNEGIPTPEDLRKQNIINNVLSSKGEPFGR	not soluble
MAHHHHHHMERVRYRSSVTRKLIDLYDEVAELYDCRENMRNQVTQAMRIDPRYCKERHGEVRLACKPTLQQQSAVESVENALEGLHDAVHELVAAYLTQEEKRHLGIDTHLFQTSTEKANTYQYAPPPPKPRSSSSNAARRARQKTSAAATFPHPSTRHREVRVEKEEGDAHENTAATAPTPAAPTLTVPVDTPAPQQQPLTNTTTNKKISNSVWDSSAPAASAAFSSAAISLPASSVKLAQQSVVELSQLAAPQQPVTSSSQPLCSSIVHVAAPEKHEDGSGTAAEQKPVAASHTQDTEIAEGTPERVVASAVSASTLSVTWPTDTGAGSTLHLPTGSQPPLATERLLKVPVSSPDALTPIAKTPPAIPPRPTSVQAQAQEPALTSANPTPPPSHPPSQDAVAASCNDASAAKASASQARTAVVGFKRFLIDSDSNSSC	soluble
MAHHHHHHMESPQVAELNEDIVELNKLLAQAVRENVKEKIKKCIENTTVEIAKLKLEESQTPNKITEKNTPLNDSNISYNSVQSFAWNQEGNKVTVFLTVKDIHTIDKEKISAEFNERNFEVKMHQVNKKNYRFCVKKLHEKIVPGKCSFKVKKDALHVYLIKQDQKYWDNLHFKESPMSKIRAPKMDEQAEPSTMLMNMMKQLYQEGDSDMKRTIAKAWCEANEKKSDFSVPNF	soluble
MAHHHHHHMEVEWDSETVTKFYNYLCGTISYQNCVELEKDLRIETGTEEKLNKHSCSSCSDHHGDVNISCFKFKKDDDDVLGEILDSEKDQENVKASLAEITQKAFTIYSNVIAKAASKGDNKVTLETDHFLRSDILRLVFSKYITTKAKERITEISSKSTKNIVTLANPLNMNEHDLNKIETDTIANLMHDYVGLQKNFLGRDYTKLIFDELVFIEYNNQFNSFGREYKNVRTDFYCWTYITSLDRQKQRGLYKLLKELSLLPYELNKKANLSLQIGTLFQFLYFSPNKSYLKKHCQGGYGKMDNGKKVTCIYVPFVHSNDDVEIKLYRSEYNGVNEESEESEGRGKTEPNVRDATTVPSNQTDDGAPFRVIKPESDSLIFLQTRNVSYEISKTKNKFFTVNFSISGPVSTERRL	not soluble
MAHHHHHHMEYQGSPQQEEGDAALAKRLHEELNRSEASGHQEPSDQTGGRRQVECPMCSSVSVVVGAADGVQQVCERCKATTHGGFASGEDNENYSMQKLLLCNICQSYNRVPKGTFDAILCGACGNQLKAGGSVTENLSPEDTRVRTQEIRVRCPKCSSINTVEANTDALSVRFECGSCRYANEVFF	soluble
MAHHHHHHMFNNDPLQKYDKELFDLLEKEKNRQIETINLIASENLTNTAVRECLGDRISNKYSEGYPHKRYYGGNDYVDKIEELCYKRALEAFNVSEEEWGVNVQPLSGSAANVQALYALVGVKGKIMGMHLCSGGHLTHGFFDEKKKVSITSDLFESKLYKCNSEGYVDMESVRNLALSFQPKVIICGYTSYPRDIDYKGFREICDEVNAYLFADISHISSFVACNLLNNPFTYADVVTTTTHKILRGPRSALIFFNKKRNPGIDQKINSSVFPSFQGGPHNNKIAAVACQLKEVNTPFFKEYTKQVLLNSKALAECLLKRNLDLVTNGTDNHLIVVDLRKYNITGSKLQETCNAINIALNKNTIPSDVDCVSPSGIRIGTPALTTRGCKEKDMEFIADMLLKAILLTDELQQKYGKKLVDFKKGLVNNPKIDELKKEVVQWAKNLPFA	soluble
MAHHHHHHMFTLLCCADLAGNKVNLEIALDTFPATLRGLESDIARIFNREVEKSGAVEHNANVAEPFQVMSVFVYDDVLLRWTKLESLTQLHEYDQLYVFQPQTQWHVDVQKELPPPRPPARSRASSITGASGTLASLQVNGCASSPWPRSGISTRISAAGDIDTSHSPVPSRSPARAQLEEHRREEERLAHRLSTLRRVREHLEREAQREEEEERRRRSLETYRLLKCKEEEIWSQRDALARAEEEFRQFLAEKQRLMGQSPSP	not soluble
MAHHHHHHMGCKNSKAREPPADTVTAAQANIATNKNSSTAPTLSPAQHHAKQTGETKRNNAASPASRGNNGEASENESRSEQPKKALGPGGNDVKQAASNSPSKQELDDEGNPLLLPNGDWVRTEGTPFYYSVEENLYFHPPSCQFYDPTNGMWYDPEKDEWYYDDENGAQE	soluble
MAHHHHHHMGCKSSAEAKPSETRSPSARLSRNSVTTPPDRMDTAHRLHPAAREEVDLDPENVAGAEHISPSVVTARSSSRVAAVTLHGICGYTHNGVPAYSNGTSNTWPWMKNFCEGIFMGYQWQCVEFARRWLWVTHRLLLPKRSCAYCFSSCTYAYRLKKDSSLISQRARAAMHKAAAETGAGSPSSSKEVNAATEARHLGPCTSRDTWEKVPAKFVKQGSLVPPVADSLIVYPISWGSPWGHIGVITAVDLDRHRVYVADQNRYFHDWNG	soluble
MAHHHHHHMGGRTAFEDVCANEAKAWSICLETNLGGKDVRKKCGEQQQTFDTCVSAWRTKVGNAVQVKGENEGDPPFQCASMACHIGECLRKYNYDFDRCEPHTQFFKYCVKSFYGQDYIS	not soluble
MAHHHHHHMGKGAVHPNGSNFCRFLKYNIVDKMRTLVNTNLYDTPRWLEWSERAPPMEIYNISLKTKYNNNKYMDLVKFLLKKYPHLRFQDCYVEGNNNIKGYDYFRNDHIITQMATHQLYYMNRGYSKKEALEKTEKLFYDRRMDIEKQQKINMCLAIDEKVKPIYTNGYQYLYEKMADNEKAHLSIILKKLRNMKEKLQKKKKGANENEDKKNGVLT	not soluble
MAHHHHHHMGSCCAKSDTSVDIDDSGRGVERDTEDDNNVYILQYQSRGEVLKMLELEPTPHEASVMTQSPSLPTDGPAAEECAEAELSDPLSCSSTTIVTVRSERRAADRFSANSLTWTLPEVSATTVSTRFDHARTTSFMGSDDDFSSVEWSANSRKDRRLMLLRDRDRAAQRDMVMNEMDQRRFIAEHANRAHRAILVTYIRNRLEIERRVSYEEFLVERNAFLLHELEAREPLVRRTVELQAHSELLNKMQQQRLLRNRGK	soluble
MAHHHHHHMGSLSSSSSSSAATGAGAAASQTDAQEVTPVDSLWSPHDVCEAAVDYVLRHVNTVQYMIQSIEEITGKPFLRDRIKCLPAVPRDEASRNPTMGLTPDRVFAGYMWRSARSDCQAKDVVLLEDHIARLFNTKHATAFLKKDKGVNERAASPPTTSDAAATAASSLSTTATQSQLQRLLAGSQLPVLEQVERNIRHELVHAFDDARGAIESSDCVHQACSEIRAARLSGDCFVGQEMRKGRFNFFEGGQKCVRRRAVMAVDRNPVCRGFSERAVDTVFQKCYSDYEPFAAPIYALGSYGDSQFANGTLKL	not soluble
MAHHHHHHMGTLEAQTQGPGSMALNSAVILAGCGHMDGSEIREAVLVMLELDRHNVNFKCFAPNKNQKQVVDHKKKESVGEVRNILVESARIARGSVYDIEQIRVEEFDMLVIPGGYGVAKNFSNLFDEDKENDYILPEFKNAVREFYNAKKPIGAVCISPAVVVALLKDIAKVKVTIGEDSNGLIDKMGGVHVDCPTIKSVKDDVNRIFSCSAYMRNDSLYNVYLGIQDMISSMVNYLKSK	soluble
MAHHHHHHMGTLEAQTQGPGSMKQAYDNNNIFAKLIRNEIPSVRVYEDDDVIAFMDIMPQAPGHTLVIPKKGSRNLLDADTETLFPVIKAVQKIAKAVKKAFQADGITVMQFNEAASQQTVYHLHFHIIPRMEGIELTPHNNIITPTEILEENAKKIRAAL	soluble
MAHHHHHHMGTLEAQTQGPGSMREVLVPYAGVSPSVDSTAFIAGNARIIGDVCIGKNASIWYGTVLRGDVDKIEVGEGTNIQDNTVVHTDSMHGDTVIGKFVTIGHSCILHACTLGNNAFVGMGSIVMDRAVMEEGSMLAAGSLLTRGKIVKSGELWAGRPAKFLRMMTEEEILYLQKSAENYIALSRGYL	soluble
MAHHHHHHMGTLEAQTQGPGSMSAPLAEVDPDIAELLAKELGRQRDTLEMIASENFVPRAVLQAQGSVLTNKYAEGLPGRRYYGGCEHVDVVENLARDRAKALFGAEFANVQPHSGAQANAAVLHALMSPGERLLGLDLANGGHLTHGMRLNFSGKLYENGFYGVDPATHLIDMDAVRATALEFRPKVIIAGWSAYPRVLDFAAFRSIADEVGAKLLVDMAHFAGLVAAGLHPSPVPHADVVSTTVHKTLGGGRSGLIVGKQQYAKAINSAVFPGQQGGPLMHVIAGKAVALKIAATPEFADRQRRTLSGARIIADRLMAPDVAKAGVSVVSGGTDVHLVLVDLRDSPLDGQAAEDLLHEVGITVNRNAVPNDPRPPMVTSGLRIGTPALATRGFGDTEFTEVADIIATALATGSSVDVSALKDRATRLARAFPLYDGLEEWSLVGR	soluble
MAHHHHHHMGTLEAQTQGPGSMSFFLTTPAAIDLGVNIDHVATLRNARGTAYPDPVRAALAAEDAGADAITLHLREDRRHIVDADVRTLRPRVKTRMNLECAVTPEMLDIACEIRPHDACLVPEKRSELTTEGGLDVVGHFDAVRAACKQLADAGVRVSLFIDPDEAQIRAAHETGAPVIELHTGRYADAHDAAEQQREFERIATGVDAGIALGLKVNAGHGLHYTNVQAIAALPGIAELNIGHAIVAHAVFVGWDNAVREMKAIMVAARVAALHGGR	soluble
MAHHHHHHMGVGLSTVRHAGTAILVPTVSAASTAVLPLSSEERVAALPGTTTPPAAAAAPAPPTAEHTSNPRQRLTDTPAAHAAVSLPHAAPKPHRRFLPYPEEASALATPPPAAVLTAAPVVVEAAVKRHRKGSRVTKPLHPAQASLFTWAEGGQRNATGDAIIAGDHLRRRCCPDAGVVANRSMDCDEDATLVVRSPDEGRRSGTSLQSEGGLYGEKGQRQFAASGQWSPSPASPEAEEVAATVCASVNATAVENAPSGPAAPLLSSAFTAYRPVARSASPGPALGQYEGLPLTSVQQVLESKHKVYRICLTGGPCAGKSTMLSAIQAKIPQRTGFRVMCVPEAATLLVTGGMQWDGDLTVPQQLGLLRTQLALEDQFYALAVASHVPTVIVSDRGTMDGRAFCTDAQFQEILRGVGSTIDVLRDRYDAVIHMVTAADGAEEFYNLDNPARYEDLDGARASDLRLQRMYVGHPMFRLLDNSTTFEDKIERGLQVVSQVVHKEQCAPALPTYYLVRRCPAELPVASATYTTYTTVLGNSQISDIRLLVKREMADGSTMHFFKSVRDAPSTVPSSRAPPRATSHASSGASFRSSVNAPTVSTASPTQQRTRAPNASAAASTRACASTATAPALRW	not soluble
MAHHHHHHMIPKESMNVDQSRYETQEGTIVENKLTPFLELTSGEIPMWVKQKYLLSPIDTSKYSDDFYKLGPDDFGKLSGEQVKPDLIKSKLPSSVLHKIWNLADITKDGYLDLFEYSLARHFIEMKTEGFDLPTKVPKDIINSHEY	soluble

— the DeepSol protein solubility set
